Test results taken from paper PMC2440032, “Odorranalectin Is a Small Peptide Lectin with Potential for Drug Delivery and Targeting” (PLoS ONE, 2008).
Positions of bridges follow the written chain, without caps; N, C: chain ends. Residues, ends and D or L forms follow the SMILES beside them. No end group written: not given here.

Key:
[1] = Tissue distribution of 125I-odorranalectin in vivo; parameters: species or system KM mice; settings: 400 µCi·kg^-1, mice, 5-300 min, Mean ± SD, n=3
Protocol: Sixty-three female KM mice (18∼22 g) were grouped randomly into three groups receiving oral, intravenous and intranasal administration of ^125I-odorranalectin at equal radiation dose (400 µCi·kg^−1), respectively. The detail procedures are provided in the supplementary materials (Materials and Methods S1).
(§1) Each experiment was carried out in triplicate. Values are given as means±SD. All the concentration data were plotted directly as radiocounting-time curves of the blood and tissues, and the area under the curve (AUC0→t) was calculated by the trapezoidal rule. The statistical differences between per oral or intranasal administrations and intravenous administration were assessed using student's t test and P<0.05 as statistical significance.
Tissue distribution of ^125I-odorranalectin in vivo. Sixty-three female KM mice (18~22 g) were grouped randomly to three groups receiving oral, intravenous and intranasal administration at equal radiation dose (400 µCi·kg^-1), respectively. The procedure for intranasal administration was performed gently and slowly so as to allow the mice to inhale all of the preparations (each nostril 10 µl). At different time intervals (5, 15, 30, 60, 120, 180 and 300 min) following administration, blood sample was collected via eye puncture; subsequently, the mice were humanly sacrificed, and tissues such as heart, liver, spleen, lung, stomach (content removed), kidney and brain were harvested and stuffed into a special tube after the remnant blood was blotted by tissue paper, following weighing, respectively. Finally, the radiocounting of each tissue was determined in a SN-695 Intellectual Radio-immunity γ Measurement to evaluate odorranalectin intake.
as §1, with “Data analysis. Each” for “Each”, “means ± SD.” for “means±SD.”, “under” for “under the”, “student’s” for “student's”, “P< 0.05” for “P<0.05”

[2] = Stability of 125I-odorranalectin in mice plasma in vitro; format: in vitro ADME; settings: mice plasma 100% (v/v) and 50% in PBS pH 7.4, 5 µCi, 37 °C, sampled 0-5 h; radiochemical purity by silica gel paper chromatography and HPLC with radioactive detector
Protocol: In order to evaluate the stability of ^125I- odorranalectin in vitro, a degradation experiment of ^125I-odorranalectin in mice plasma was performed. The details are provided in the supplementary materials (Materials and Methods S1).
Stability of ^125I-odorranalectin in vitro. In order to evaluate the stability of ^125I- odorranalectin in vitro, a degradation experiment of ^125I-odorranalectin in mice plasma was performed. Briefly, 5 µCi ^125I-odorranalectin (about 10 µl) was added to 790 µl plasma (100%, v/v) freshly prepared and 400 µL plasma (50%) admixed with 390 µl PBS (pH 7.4) in two 1.5-ml centrifuge tubes, respectively, which maintained at 37 °C in a rolling water-bath incubator. Then at each time point (0, 1, 2, 3, 4 and 5 h), a glass microcap was used to take samples for silica gel paper chromatography (SGPC) analysis and high-performance liquid chromatography (HPLC) for calculating the radiochemical purity of ^125I-odorranalectin. In detail, the developing agent of SGPC was methanol: water = 85:15 (v/v); After spotted and the solvent reached the frontier, the silica gel paper strip was dried and cut to ten equations (Fig. S3 and Table S7), and then set in 10 tubes, following determined radiocounting of each piece in a SN-695 Intellectual Radio-immunity γ Measurement (Shanghai Institute of Nuclear Research Ri Huan Instrument Factory, China), respectively. […]

human erythrocytes = assay: Erythrocytes hemagglutination; format: cell-based; settings: blood group not named
[3] = SPR, odorranalectin and its mutants binding L-fucose; settings: peptide immobilized, L-fucose as analyte, NA = no binding to L-fucose, read-out: binding affinity (KD)
Protocol: Real time detection of odorranalectin and its mutants binding to glycoproteins and L-fucose was recorded by using a Biacore 3000 [21]–[24]. The details are provided in the supplementary materials (Materials and Methods S1).
SPR Analysis. Real time detection of odorranalectin and its mutants binding to glycoproteins and L-fucose was recorded by using a Biacore 3000 [21-24]. Odorranalectin was immobilized covalently via their primary amines to carboxyl groups within a dextran layer on the sensor chip CM-5 according to the manufacturer’s specifications. After chip activation with 0.4 M 1-ethyl-3- (3-dimethylaminopropyl) carbodiimide hydrochloride and 10 mM N-hydroxysuccinimide, odorranalectin or its mutants (in 10 mM sodium acetate buffer, pH 4.0) at a concentration of 100 μg/ml was passed through the flow cells at a rate of 5 μl/min. After immobilization, the chip was capped by exposure to 1 M ethanolamine (pH 8.5).
All analyses were performed at a flow rate of 30 μl/min. Before loading of analytes, the chip was equilibrated with 10 mM HEPES-buffered saline containing 3 mM EDTA and 0.005% surfactant P-20, pH 7.4 (HBS-EP). […]
Association and dissociation rate constants (ka and kd) were calculated by using BIA evaluation 4.0 software (Biacore AB, Sweden). The affinity constant (KD) was calculated from the ka and kd. […]

Compound: ^125I-odorranalectin: odorranalectin labeled by 125I with iodogen method (YASPKCFRYPNGVLACT; disulfide 6-16; ends not checked; also: 125I on a tyrosine, which one is not given here)
- AUC Blood ([1]; in (intranasal)): 6.77±3.05 *10^7 CPM·min
- AUC Brain ([1]; in (intranasal)): 0.36±0.15 *10^7 CPM·min
- AUC Heart ([1]; in (intranasal)): 2.88±1.16 *10^7 CPM·min
- AUC Kideny ([1]; in (intranasal)): 5.17±2.10 *10^7 CPM·min
- AUC Liver ([1]; in (intranasal)): 3.53±1.50 *10^7 CPM·min
- AUC Lung ([1]; in (intranasal)): 12.50±3.77 *10^7 CPM·min
- AUC Spleen ([1]; in (intranasal)): 4.48±1.86 *10^7 CPM·min
- AUC Stomach ([1]; in (intranasal)): 125.61±44.28 *10^7 CPM·min
- AUC Blood ([1]; iv): 5.41±1.11 *10^7 CPM·min
- AUC Brain ([1]; iv): 0.46±0.047 *10^7 CPM·min
- AUC Heart ([1]; iv): 3.37±0.51 *10^7 CPM·min
- AUC Kideny ([1]; iv): 8.47±1.41 *10^7 CPM·min
- AUC Liver ([1]; iv): 98.51±6.22 *10^7 CPM·min
- AUC Lung ([1]; iv): 246.41±62.56 *10^7 CPM·min
- AUC Spleen ([1]; iv): 64.82±8.61 *10^7 CPM·min
- AUC Stomach ([1]; iv): 20.90±3.09 *10^7 CPM·min
- AUC Blood ([1]; po): 4.89±0.69 *10^7 CPM·min
- AUC Brain ([1]; po): 0.25±0.024 *10^7 CPM·min
- AUC Heart ([1]; po): 1.99±0.24 *10^7 CPM·min
- AUC Kideny ([1]; po): 3.84±0.76 *10^7 CPM·min
- AUC Liver ([1]; po): 2.42±0.29 *10^7 CPM·min
- AUC Lung ([1]; po): 4.02±0.51 *10^7 CPM·min
- AUC Spleen ([1]; po): 3.60±0.35 *10^7 CPM·min
- AUC Stomach ([1]; po): 126.64±32.27 *10^7 CPM·min
- Time of stability in mice plasma [2]: at least 5 hours

Compound: CC(C)C[C@@H]1NC(=O)[C@H](C(C)C)NC(=O)CNC(=O)[C@H](CC(N)=O)NC(=O)[C@@H]2CCCN2C(=O)[C@H](Cc2ccc(O)cc2)NC(=O)[C@H](CCCNC(=N)N)NC(=O)[C@H](Cc2ccccc2)NC(=O)[C@@H](NC(=O)[C@H](CCCCN)NC(=O)[C@@H]2CCCN2C(=O)[C@H](CO)NC(=O)[C@H](C)NC(=O)[C@@H](N)Cc2ccc(O)cc2)CSSC[C@@H](C(=O)N[C@H](C(=O)O)[C@@H](C)O)NC(=O)[C@H](C)NC1=O [odorranalectin] (HELM PEPTIDE1{Y.A.S.P.K.C.F.R.Y.P.N.G.V.L.A.C.T}$PEPTIDE1,PEPTIDE1,6:R3-16:R3$$$V2.0)
- minimum concentration (MIC) to agglutinate intact human erythrocytes (human erythrocytes): 0.75 µg/mL
- Time of stability in mice plasma [2]: more than 5 hours

Compound: YASPGGFRYPNGVLACT [Odorranalectin T17/G17]
- Kd [3]: 8.2 mM
